Laboratory results published in patent US20180362616A1 (NATIONAL INSTITUTE FOR BIOTECHNOLOGY IN THE NEGEV, published 2018).
Residue numbers refer to the chain shown, from its start. In names and notes the source's numbering stands.

Key:
[1] = molecular target: T1, human mesotrypsin (catalytically active) (human, UniProt P35030 81-304); assay: inhibition of mesotrypsin cleavage of Z-GPR-pNA
T1 construct: mature; In the invasion assays it is the endogenous enzyme of PC3-M cells; also called active mesotrypsin; PRSS3 gene product
T1 sequence (looked up): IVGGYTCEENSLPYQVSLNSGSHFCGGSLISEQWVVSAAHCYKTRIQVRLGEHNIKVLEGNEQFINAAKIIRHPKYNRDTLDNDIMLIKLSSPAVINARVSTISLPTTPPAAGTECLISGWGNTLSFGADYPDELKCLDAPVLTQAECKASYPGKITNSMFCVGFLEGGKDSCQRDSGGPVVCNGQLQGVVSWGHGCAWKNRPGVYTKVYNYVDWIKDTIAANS

human anionic trypsin [2] = molecular target: T2, human anionic trypsin (human, UniProt P07478 24-247); assay: inhibition of anionic trypsin cleavage of Z-GPR-pNA; slow tight-binding fit
T2 construct: mature

human Kallikrein-6 [3] = molecular target: T3, human Kallikrein-6 (human, UniProt Q92876 22-244); assay: SPR, APPI held on nickel chip by its His tag, hK6 as analyte, 25° C.
human Kallikrein-6 [4] = molecular target: T3, human Kallikrein-6; assay: inhibition of kallikrein-6 cleavage of BOC-Phe-Ser-Arg-AMC; slow tight-binding fit
human Kallikrein-6 [5] = molecular target: T3, human Kallikrein-6; assay: inhibition of hK6 catalytic activity, slow tight inhibition mechanism
human cationic trypsin [6] = molecular target: T4, human cationic trypsin (human, UniProt P07477 24-247); assay: inhibition of cationic trypsin cleavage of Z-GPR-pNA; slow tight-binding fit
T4 construct: mature

Factor XIa [7] = molecular target: T5, Factor XIa (human, UniProt P03951 19-625); assay: inhibition of FXIa cleavage of S-2366
T5 construct: also called FXIa

[8] = molecular target: T1, human mesotrypsin (catalytically active); assay: inhibition of mesotrypsin cleavage of Z-GPR-pNA; competitive inhibition fit (Equation 1)
[9] = molecular target: T1, human mesotrypsin (catalytically active); assay: Ki against that of APPI-WT, mesotrypsin inhibition
[10] = molecular target: T1, human mesotrypsin (catalytically active); assay: cell-based or functional assay
[11] = molecular target: T1, human mesotrypsin (catalytically active); assay: free energy change of association calculated from Ki of mesotrypsin inhibition (Equation 4), triple mutant cycle
[12] = molecular target: T1, human mesotrypsin (catalytically active); assay: Ki against that of APPI-WT, mesotrypsin inhibition (Equation 1)
[13] = molecular target: T1, human mesotrypsin (catalytically active); assay: Ki against that of APPI-WT, mesotrypsin inhibition (Equation 2)
[14] = molecular target: T1, human mesotrypsin (catalytically active); assay: inhibition of mesotrypsin cleavage of Z-GPR-pNA; slow tight-binding fit (Equation 2)
[15] = molecular target: T1, human mesotrypsin (catalytically active); assay: cell-based or functional assay; remark: listed apart in the source
[16] = molecular target: T1, human mesotrypsin (catalytically active); assay: Ki of soluble variant against APPI-WT
[17] = molecular target: T1, human mesotrypsin (catalytically active); assay: inhibition constant of soluble variant; target taken as mesotrypsin
[18] = molecular target: T1, human mesotrypsin (catalytically active); assay: inhibition of mesotrypsin activity
human Kallikrein-6 [19] = molecular target: T3, human Kallikrein-6; assay: SPR, APPI held on nickel chip by its His tag, hK6 as analyte
human Kallikrein-6 [20] = molecular target: T3, human Kallikrein-6; assay: by the numbers: Ki (fold) for mesotrypsin over Ki (fold) for kallikrein-6
[21] = molecular target: T1, human mesotrypsin (catalytically active); assay: Ki of APPI-WT over Ki of APPI-M17G/I18F/F34V, mesotrypsin
Factor XIa [22] = molecular target: T5, Factor XIa; assay: by the numbers: Ki (fold) for mesotrypsin over Ki (fold) for FXIa
[23] = molecular target: T1, human mesotrypsin (catalytically active); assay: inhibition of mesotrypsin cleavage of Z-GPR-pNA; slow tight-binding fit
human anionic trypsin [24] = molecular target: T2, human anionic trypsin; assay: Ki of APPI-WT over Ki of APPI-M17G/I18F/F34V, anionic trypsin
[25] = molecular target: T1, human mesotrypsin (catalytically active); assay: by the numbers: Ki (fold) for mesotrypsin over Ki (fold) for this protease
Factor XIa [26] = molecular target: T5, Factor XIa; assay: Ki of APPI-WT over Ki of APPI-M17G/I18F/F34V, FXIa
human cationic trypsin [27] = molecular target: T4, human cationic trypsin; assay: by the numbers: Ki (fold) for mesotrypsin over Ki (fold) for cationic trypsin
human anionic trypsin [28] = molecular target: T2, human anionic trypsin; assay: by the numbers: Ki (fold) for mesotrypsin over Ki (fold) for anionic trypsin
human Kallikrein-6 [29] = molecular target: T3, human Kallikrein-6; assay: Ki of APPI-WT over Ki of APPI-M17G/I18F/F34V, kallikrein-6
human cationic trypsin [30] = molecular target: T4, human cationic trypsin; assay: Ki of APPI-WT over Ki of APPI-M17G/I18F/F34V, cationic trypsin

B1: APPI-WT (SEQ ID NO: 25), soluble, expressed in Pichia pastoris (other)
chain: EVCSEQAETGPCRAMISRWYFDVTEGKCAPFFYGGCGGNRNNFDTEEYCMAVCGSAI
notes: Secreted from P. pastoris GS115, purified by nickel IMAC and gel filtration; also called WT APPI; not shown: N-terminal FLAG tag with the SnaBI/EcoRI-coded residues, and the C-terminal AvrII-coded residues plus His6
[1]
  Ki: 131 nM
Human anionic trypsin [2]
  Ki: 0.00174 nM
Human Kallikrein-6 [3]
  Kd: 7.91 nM
Human Kallikrein-6 [4]
  Ki: 2.23 nM
Human Kallikrein-6 [5]
  Ki: 2.24 nM
Human cationic trypsin [6]
  Ki: 0.00627 nM
Factor XIa [7]
  Ki: 0.41 nM
[8]
  Ki: 131 nM

B2: APPI-F34V (SEQ ID NO: 23), soluble (designed binder)
chain: B1 chain with F32V
notes: Variants were subcloned between EcoRI and AvrII of the APPI-WT pPIC9K template; not shown: AvrII site residues and C-terminal HIS6 tag
[9]
  Ki (fold): 2.6 fold
[8]
  Ki: 50.1 nM
[10]
  Kcat (s^-1) of hydrolysis of APPI by mesotrypsin (HPLC time course): 0.0161 s⁻¹
[11]
  ΔΔGa, edge WT to F34V: -0.59 kcal/mol

B3: APPI-M17G (SEQ ID NO: 18), soluble (designed binder)
chain: B1 chain with M15G
notes: not shown: AvrII site residues and C-terminal HIS6 tag
[12]
  Ki (fold): 39.8 fold
[13]
  Ki (fold): 34.8 fold
[14]
  Ki: 3.69 nM
[8]
  Ki: 3.29 nM
[10]
  Kcat (s^-1) of hydrolysis of APPI by mesotrypsin (HPLC time course): 0.0156 s⁻¹
[11]
  ΔΔGa, edge WT to M17G: -2.26 kcal/mol

B4: APPI-I18F/F34V (SEQ ID NO: 20), soluble (designed binder)
chain: B1 chain with I16F, F32V
notes: as for B3
[9]
  Ki (fold): 39.8 fold
[14]
  Ki: 3.3 nM
[10]
  Kcat (s^-1) of hydrolysis of APPI by mesotrypsin (HPLC time course): 0.00535 s⁻¹
[11]
  ΔΔGa, edge F34V to I18F/F34V: -1.67 kcal/mol
  ΔΔGa, edge I18F to I18F/F34V: 0 kcal/mol

B5: APPIM17G/I18F/K29L/F34V (SEQ ID NO: 10), soluble (designed binder)
chain: B1 chain with M15G, I16F, K27L, F32V
notes: as for B3
[15]
  Kcat (1/s), proteolytic resistance: 0.000535 s⁻¹
[16]
  fold improvement in affinity relative to APPI-WT: ~1000 fold
[17]
  Ki: 0.0891 nM

B6: APPIM17C/I18F/F34C (SEQ ID NO: 12), soluble (designed binder)
chain: B1 chain with M15C, I16F, F32C
notes: as for B3
[15]
  Kcat (1/s), proteolytic resistance: 0.00038 s⁻¹
[16]
  fold improvement in affinity relative to APPI-WT: ~2000 fold
[17]
  Ki: 0.0524 nM

B7: APPI-M17G/I18F (SEQ ID NO: 22), soluble (designed binder)
chain: B1 chain with M15G, I16F
notes: as for B3
[9]
  Ki (fold): 290 fold
[14]
  Ki: 0.453 nM
[10]
  Kcat (s^-1) of hydrolysis of APPI by mesotrypsin (HPLC time course): 0.00291 s⁻¹
[11]
  ΔΔGa, edge I18F to M17G/I18F: -1.22 kcal/mol
  ΔΔGa, edge M17G to M17G/I18F: -1.22 kcal/mol

B8: APPIM17L,I18F,S19F,F34V (SEQ ID NO: 13), soluble (designed binder)
chain: B1 chain with M15L, I16F, S17F, F32V
notes: also called APPI 3M G17L,S19F; not shown: His tag at the C-terminal
[18]
  Ki: 5.38 nM
Human Kallikrein-6 [3]
  Kd: 0.351 nM
Human Kallikrein-6 [19]
  fold improvement in binding compared to APPI WT: 22.5 fold

B9: APPI-M17G/F34V (SEQ ID NO: 21), soluble (designed binder)
chain: B1 chain with M15G, F32V
notes: as for B3
[9]
  Ki (fold): 93.6 fold
[14]
  Ki: 1.4 nM
[10]
  Kcat (s^-1) of hydrolysis of APPI by mesotrypsin (HPLC time course): 0.00371 s⁻¹
[11]
  ΔΔGa, edge F34V to M17G/F34V: -2.2 kcal/mol
  ΔΔGa, edge M17G to M17G/F34V: -0.53 kcal/mol

B10: APPIT11C/M17G/I18F/F34C (SEQ ID NO: 11), soluble (designed binder)
chain: B1 chain with T9C, M15G, I16F, F32C
notes: as for B3
[15]
  Kcat (1/s), proteolytic resistance: 0.00521 s⁻¹
[17]
  Ki: 149 nM

B11: APPIT11V/M17G/I18F/F34V (SEQ ID NO: 9), soluble (designed binder)
chain: B1 chain with T9V, M15G, I16F, F32V
notes: as for B3
[15]
  Kcat (1/s), proteolytic resistance: 0.000347 s⁻¹
[16]
  fold improvement in affinity relative to APPI-WT: ~2000 fold
[17]
  Ki: 0.0499 nM

B12: APPI-I18F (SEQ ID NO: 19), soluble (designed binder)
chain: B1 chain with I16F
notes: as for B3
[9]
  Ki (fold): 39.8 fold
[8]
  Ki: 3.29 nM
[10]
  Kcat (s^-1) of hydrolysis of APPI by mesotrypsin (HPLC time course): 0.0104 s⁻¹
[11]
  ΔΔGa, edge WT to I18F: -2.26 kcal/mol

B13: APPI-M17G/I18F/F34V (SEQ ID NO: 8), soluble (designed binder)
chain: B1 chain with M15G, I16F, F32V
notes: also called APPI 3M; APPI^3M; not shown: AvrII site residues and C-terminal HIS6 tag
Human anionic trypsin [2]
  Ki: 0.00147 nM
[9]
  Ki (fold): 1460 fold
Human Kallikrein-6 [4]
  Ki: 1.09 nM
Human Kallikrein-6 [20]
  specificity ratio (formula not given): 715
Human Kallikrein-6 [5]
  Ki: 1.1 nM
[21]
  Ki (fold): 1460 fold
Human cationic trypsin [6]
  Ki: 0.00496 nM
[14]
  Ki: 0.0898 nM
Factor XIa [22]
  specificity ratio (formula not given): 350000
[23]
  Ki: 0.0898 nM
Human anionic trypsin [24]
  Ki (fold): 1.18 fold
[25]
  specificity ratio (formula not given): 1
Factor XIa [26]
  Ki (fold): 0.00416 fold
Human cationic trypsin [27]
  specificity ratio (formula not given): 1120
Factor XIa [7]
  Ki: 98.4 nM
Human anionic trypsin [28]
  specificity ratio (formula not given): 1240
Human Kallikrein-6 [29]
  Ki (fold): 2.04 fold
[10]
  Kcat (s^-1) of hydrolysis of APPI by mesotrypsin (HPLC time course): 0.000429 s⁻¹
Human cationic trypsin [30]
  Ki (fold): 1.3 fold
